Results on 15 variants are retold here after the RNAGym collection of RNA variant scans (doi:10.1093/molbev/msab373).

B1: Azoarcus group I ribozyme (parent)
chain: GUGCCUUGCGCCGGGAAACCACGCAAGGGAUGGUGUCAAAUUCGGCGAAACCUAAGCGCCCGCCCGGGCGUAUGGCAACGCCGAGCCAAGCUUCGGCGCCUGCGCCGAUGAAGGUGUAGAGACUAGACGGCACCCACCUAAGGCAAACGCUAUGGUGAAGGCAUAGUCCAGGGAGUGGCGAAAGUCACACAAACCGG

Variants of B1 are the subject of the data set. As to the kind of experiment: reverse-splicing fitness (ratio to wild type); higher = more active; in vitro selection; Mg2+ level not given. The method, boiled down:
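An in vitro group I ribozyme library with randomized positions was T7-transcribed and gel-purified. In triplicate, 10 pmol RNA in EPPS pH 7.5 was reacted with 50 pmoles of a 30-nt RNA substrate for 1 h at 37 °C across several added MgCl2 levels (1–48 mM), then stopped with EDTA. Products were reverse transcribed from a substrate-complementary primer, PCR-amplified and sequenced (HiSeq 4000). Fitness is a variant's read proportion after selection over that before, normalised to wild type.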
Turning to GUGCCUUGCGCCGGGAAACCACGCAAGGGAUGGUGUCAAAUUCGGCGAAACCUAAGCGCCCGCCCGGGCGUAUGGCAACGCCGAGCCAAGCUUCGGCGCCUGCGCCGAUGCAGGUGUAGCGACUAGACGGCACCCACCUAAGGCUAACGCUAUGGUGAAGGCAUAGUCUAGGGAGAGGCGAAAGUCACACAAACCGG, the reverse-splicing fitness turned out to be 0.035. The figure for GUGCCUUGCGCCGGGAAACCACGCAAGGGAUGGUGUCAAAUUCGGCGAAACCUAAGCGCCCGCCCGGGCGUAUGGCAACGCCGAGCCAAGCUUCGGCGCCUGCGCCGAUGCAGGUGUAGCGACUAGACGGCACCCACCUAAGGCUAACGCUAUGGUGAAGGCAUAGUCUAGGGAGCGGCGAAAGUCACACAAACCGG is 0.0445. The same measure for GUGCCUUGCGCCGGGAAACCACGCAAGGGAUGGUGUCAAAUUCGGCGAAACCUAAGCGCCCGCCCGGGCGUAUGGCAACGCCGAGCCAAGCUUCGGCGCCUGCGCCGAUGCAGGUGUAGCGACUAGACGGCACCCACCUAAGGCUAACGCUAUGGUGAAGGCAUAGUCUAGGGAGGGGCGAAAGUCACACAAACCGG: 0.00761; for GUGCCUUGCGCCGGGAAACCACGCAAGGGAUGGUGUCAAAUUCGGCGAAACCUAAGCGCCCGCCCGGGCGUAUGGCAACGCCGAGCCAAGCUUCGGCGCCUGCGCCGAUGCAGGUGUAGCGACUAGACGGCACCCACCUAAGGCAAACGAUAUGGUGAAGGCAUAGUCGAGGGAGUGGCGAAAGUCACACAAACCGG: 0.00716; for GUGCCUUGCGCCGGGAAACCACGCAAGGGAUGGUGUCAAAUUCGGCGAAACCUAAGCGCCCGCCCGGGCGUAUGGCAACGCCGAGCCAAGCUUCGGCGCCUGCGCCGAUGCAGGUGUAGCGACUAGACGGCACCCACCUAAGGCAAACGAUAUGGUGAAGGCAUAGUCUAGGGAGUGGCGAAAGUCACACAAACCGG: 0.0222. The same measure for GUGCCUUGCGCCGGGAAACCACGCAAGGGAUGGUGUCAAAUUCGGCGAAACCUAAGCGCCCGCCCGGGCGUAUGGCAACGCCGAGCCAAGCUUCGGCGCCUGCGCCGAUGCAGGUGUAGCGACUAGACGGCACCCACCUAAGGCAAACGAUAUGGUGAAGGCAUAGUCAAGGGAGUGGCGAAAGUCACACAAACCGG: 0.00999. Take GUGCCUUGCGCCGGGAAACCACGCAAGGGAUGGUGUCAAAUUCGGCGAAACCUAAGCGCCCGCCCGGGCGUAUGGCAACGCCGAGCCAAGCUUCGGCGCCUGCGCCGAUGCAGGUGUAGCGACUAGACGGCACCCACCUAAGGCUAACGCUAUGGUGAAGGCAUAGUCAAGGGAGGGGCGAAAGUCACACAAACCGG: the reverse-splicing fitness was 0.00762.

In the case of GUGCCUUGCGCCGGGAAACCACGCAAGGGAUGGUGUCAAAUUCGGCGAAACCUAAGCGCCCGCCCGGGCGUAUGGCAACGCCGAGCCAAGCUUCGGCGCCUGCGCCGAUGCAGGUGUAGCGACUAGACGGCACCCACCUAAGGCUAACGCUAUGGUGAAGGCAUAGUCAAGGGAGAGGCGAAAGUCACACAAACCGG, the reverse-splicing fitness was 0.0135.

On to GUGCCUUGCGCCGGGAAACCACGCAAGGGAUGGUGUCAAAUUCGGCGAAACCUAAGCGCCCGCCCGGGCGUAUGGCAACGCCGAGCCAAGCUUCGGCGCCUGCGCCGAUGCAGGUGUAGCGACUAGACGGCACCCACCUAAGGCUAACGCUAUGGUGAAGGCAUAGUCAAGGGAGCGGCGAAAGUCACACAAACCGG, for which the reverse-splicing fitness is 0.0102. The figure for GUGCCUUGCGCCGGGAAACCACGCAAGGGAUGGUGUCAAAUUCGGCGAAACCUAAGCGCCCGCCCGGGCGUAUGGCAACGCCGAGCCAAGCUUCGGCGCCUGCGCCGAUGCAGGUGUAGCGACUAGACGGCACCCACCUAAGGCUAACGCUAUGGUGAAGGCAUAGUCCAGGGAGGGGCGAAAGUCACACAAACCGG is 0.0519; for GUGCCUUGCGCCGGGAAACCACGCAAGGGAUGGUGUCAAAUUCGGCGAAACCUAAGCGCCCGCCCGGGCGUAUGGCAACGCCGAGCCAAGCUUCGGCGCCUGCGCCGAUGCAGGUGUAGCGACUAGACGGCACCCACCUAAGGCUAACGCUAUGGUGAAGGCAUAGUCCAGGGAGAGGCGAAAGUCACACAAACCGG it is 0.222; for GUGCCUUGCGCCGGGAAACCACGCAAGGGAUGGUGUCAAAUUCGGCGAAACCUAAGCGCCCGCCCGGGCGUAUGGCAACGCCGAGCCAAGCUUCGGCGCCUGCGCCGAUGCAGGUGUAGCGACUAGACGGCACCCACCUAAGGCUAACGCUAUGGUGAAGGCAUAGUCCAGGGAGCGGCGAAAGUCACACAAACCGG it is 0.215. The figure for GUGCCUUGCGCCGGGAAACCACGCAAGGGAUGGUGUCAAAUUCGGCGAAACCUAAGCGCCCGCCCGGGCGUAUGGCAACGCCGAGCCAAGCUUCGGCGCCUGCGCCGAUGCAGGUGUAGCGACUAGACGGCACCCACCUAAGGCUAACGUUAUGGUGAAGGCAUAGUCCAGGGAGCGGCGAAAGUCACACAAACCGG is 0.174; for GUGCCUUGCGCCGGGAAACCACGCAAGGGAUGGUGUCAAAUUCGGCGAAACCUAAGCGCCCGCCCGGGCGUAUGGCAACGCCGAGCCAAGCUUCGGCGCCUGCGCCGAUGCAGGUGUAGCGACUAGACGGCACCCACCUAAGGCUAACGUUAUGGUGAAGGCAUAGUCCAGGGAGAGGCGAAAGUCACACAAACCGG it is 0.146; for GUGCCUUGCGCCGGGAAACCACGCAAGGGAUGGUGUCAAAUUCGGCGAAACCUAAGCGCCCGCCCGGGCGUAUGGCAACGCCGAGCCAAGCUUCGGCGCCUGCGCCGAUGCAGGUGUAGCGACUAGACGGCACCCACCUAAGGCUAACGUUAUGGUGAAGGCAUAGUCCAGGGAGGGGCGAAAGUCACACAAACCGG it is 0.0336.
